Each block holds one molecule with its values, some of them ahead of it.
Key:
[1] = molecular target: Rabex-5-Rabaptin-5C21 (R2) complex (human) (UniProt Q15276); assay: SAXS; purified R2, R2Δ, R3 and R3Δ complexes at 5 mg/ml in 20 mM Tris–HCl (pH 8.0), 150 mM NaCl, 293 K
[2] = molecular target: Rab5-Rabex-5-Rabaptin-5C21 (R3) complex (human) (UniProt P20339); assay: as above
[3] = molecular target: the molecule itself; assay: crystal structure; Rabex-5Δ-Rabaptin-5C21_(2) (R2Δ) complex, 3.10 Å; hanging drop, 16°C, 2.0 M NaH2PO4/K2HPO4 (pH 7.0), 0.05% n-octyl-β-D-galactopyranoside

stoichiometry N [1]: 2
Molecule: Rabex-5-Rabaptin-5C21 (R2) complex (from UniProt Q15276 552-642)

stoichiometry N [2]: 2
Molecule: Rab5-Rabex-5-Rabaptin-5C21 (R3) complex (from UniProt P20339 15-184; Q15276 552-642)

B1: Rabaptin-5 C2-1 domain (residues 552–642) (domain or fragment, human, UniProt Q15276 552-642, looked up)
chain: ETRDQVKKLQLMLRQANDQLEKTMKDKQELEDFIKQSSEDSSHQISALVLRAQASEILLEELQQGLSQAKRDVQEQMAVLMQSREQVSEEL
notes: Rabaptin-5, human, C2-1 domain, residues 552-642; In pET-Duet1 a tag is stated only for the Rabex-5 partner; also called Rabaptin-5C21_(2)
binding result [3]: binds
